In patent US20260232732A1 (FUNDACI INSTITUT DE RECERCA CONTRA LA LEUC MIA JOSEP …, published 2026):
Where no end group is shown, it is not given here. The star is where a group is joined. Biotin = O=C1N[C@H]2[C@H](CS[C@H]2CCCCC(=O)*)N1

T1: naked peptide MTPTDFTSPI (human)
T1 peptide: MTPTDFTSPI

T2: naked peptide TDFTSPIPNM (human)
T2 peptide: TDFTSPIPNM

T3: naked peptide TSPIPNMADD (human)
T3 peptide: TSPIPNMADD

T4: naked peptide IPNMADDYGS (human)
T4 peptide: IPNMADDYGS

T5: naked peptide MADDYGSEST (human)
T5 peptide: MADDYGSEST

T6: naked peptide DYGSESTSSM (human)
T6 peptide: DYGSESTSSM

T7: naked peptide TSSMEDYVNF (human)
T7 peptide: TSSMEDYVNF

T8: naked peptide SSMEDYVNFN (human)
T8 peptide: SSMEDYVNFN

T9: naked peptide MEDYVNFNFT (human)
T9 peptide: MEDYVNFNFT

T10: naked peptide YVNFNFTDFY (human)
T10 peptide: YVNFNFTDFY

T11: naked peptide FNFTDFYCEK (human)
T11 peptide: FNFTDFYCEK

T12: naked peptide TDFYCEKNNV (human)
T12 peptide: TDFYCEKNNV

T13: naked peptide YCEKNNVRQF (human)
T13 peptide: YCEKNNVRQF

T14: naked peptide KNNVRQFAS (human)
T14 peptide: KNNVRQFAS

T15: biotin-peptide MTPTDFTSPI (human, also: prints MTPTDFTSP, without I10)
T15 peptide: Biotin-MTPTDFTSPI

T16: biotin-peptide TDFTSPIPNM (human)
T16 peptide: Biotin-TDFTSPIPNM

T17: biotin-peptide TSPIPNMADD (human)
T17 peptide: Biotin-TSPIPNMADD

T18: biotin-peptide IPNMADDYGS (human)
T18 peptide: Biotin-IPNMADDYGS

T19: biotin-peptide MADDYGSEST (human)
T19 peptide: Biotin-MADDYGSEST

T20: biotin-peptide DYGSESTSSM (human)
T20 peptide: Biotin-DYGSESTSSM

T21: biotin-peptide SESTSSMEDY (human)
T21 peptide: Biotin-SESTSSMEDY

T22: biotin-peptide TSSMEDYVNF (human)
T22 peptide: Biotin-TSSMEDYVNF

T23: biotin-peptide SSMEDYVNFN (human)
T23 peptide: Biotin-SSMEDYVNFN

T24: biotin-peptide SMEDYVNFNF (human)
T24 peptide: Biotin-SMEDYVNFNF

T25: biotin-peptide MEDYVNFNFT (human)
T25 peptide: Biotin-MEDYVNFNFT

T26: biotin-peptide YVNFNFTDFY (human)
T26 peptide: Biotin-YVNFNFTDFY

T27: biotin-peptide FNFTDFYCEK (human)
T27 peptide: Biotin-FNFTDFYCEK

T28: biotin-peptide TDFYCEKNNV (human)
T28 peptide: Biotin-TDFYCEKNNV

T29: biotin-peptide YCEKNNVRQF (human)
T29 peptide: Biotin-YCEKNNVRQF

T30: biotin-peptide KNNVRQFAS (human)
T30 peptide: Biotin-KNNVRQFAS


Legend:
naked peptide MTPTDFTSPI = molecular target: T1, naked peptide MTPTDFTSPI; test: ELISA naked peptide; scFv 1 ug/mL; repII
Description: (§1) The peptides were synthesized naked or with a N-terminal Biotin modification with a purity of >98%. All four scFvs were verified by ELISA that can be detected with anti-His antibodies. ELISA was performed for scFv-peptide binding validation. Briefly, naked peptides were coated (50 μg/mL) in 0.58M carbonate-bicarbonate buffer pH9.5, 100 μL/well, 4° C. O/N. Then after blocking (3% BSA-PBS, 300 μL/well 37° C. 1.5 h) and washing (PBS+Tween-20 0.05% v/v (0.05% PBST), wells were incubated with each purified scFv antibody at concentration of 1 μg/mL in PBS at 37° C. 1 h. After washing (0.05% PBST), wells were incubated with secondary antibodies (goat anti-His IgG-HRP) in PBS, 37° C., 30 min. After washing, and incubation with TMB substrate, reactions were stopped with 2M HCl and reading was quantified at OD450.
(§2) Then a library of overlapping peptides were designed and constructed separately to produce 16 different peptides, covering full antigen sequence of total 48 aa. Peptide size was 10aa, with 7aa overlapping and ELISA screening of scFv against each peptide was performed in duplicate. Screening was performed using naked peptides in a standard plate or biotinylated peptides using avidin-plates.

naked peptide TDFTSPIPNM = molecular target: T2, naked peptide TDFTSPIPNM; test: ELISA naked peptide; scFv 1 ug/mL; repII
Description: as §1, §2

naked peptide TSPIPNMADD = molecular target: T3, naked peptide TSPIPNMADD; test: ELISA naked peptide; scFv 1 ug/mL; repII
Description: as §1, §2

naked peptide IPNMADDYGS = molecular target: T4, naked peptide IPNMADDYGS; test: ELISA naked peptide; scFv 1 ug/mL; repII
Description: as §1, §2

naked peptide MADDYGSEST = molecular target: T5, naked peptide MADDYGSEST; test: ELISA naked peptide; scFv 1 ug/mL; repII
Description: as §1, §2

naked peptide DYGSESTSSM = molecular target: T6, naked peptide DYGSESTSSM; test: ELISA naked peptide; scFv 1 ug/mL; repII
Description: as §1, §2

naked peptide TSSMEDYVNF = molecular target: T7, naked peptide TSSMEDYVNF; test: ELISA naked peptide; scFv 1 ug/mL; repII
Description: as §1, §2

naked peptide SSMEDYVNFN = molecular target: T8, naked peptide SSMEDYVNFN; test: ELISA naked peptide; scFv 1 ug/mL; repII
Description: as §1, §2

naked peptide MEDYVNFNFT = molecular target: T9, naked peptide MEDYVNFNFT; test: ELISA naked peptide; scFv 1 ug/mL; repII
Description: as §1, §2

naked peptide YVNFNFTDFY = molecular target: T10, naked peptide YVNFNFTDFY; test: ELISA naked peptide; scFv 1 ug/mL; repII
Description: as §1, §2

naked peptide FNFTDFYCEK = molecular target: T11, naked peptide FNFTDFYCEK; test: ELISA naked peptide; scFv 1 ug/mL; repII
Description: as §1, §2

naked peptide TDFYCEKNNV = molecular target: T12, naked peptide TDFYCEKNNV; test: ELISA naked peptide; scFv 1 ug/mL; repII
Description: as §1, §2

naked peptide YCEKNNVRQF = molecular target: T13, naked peptide YCEKNNVRQF; test: ELISA naked peptide; scFv 1 ug/mL; repII
Description: as §1, §2

naked peptide KNNVRQFAS = molecular target: T14, naked peptide KNNVRQFAS; test: ELISA naked peptide; scFv 1 ug/mL; repII
Description: as §1, §2

[1] = molecular target: T15, biotin-peptide MTPTDFTSPI; test: ELISA biotin-peptide; scFv 10 ug/mL; repII
Description: as §1
(§3) ELISA with biotin-conjugated peptides (5 μg/mL) was performed very similar to described above with minor modifications.

[2] = molecular target: T16, biotin-peptide TDFTSPIPNM; test: ELISA biotin-peptide; scFv 10 ug/mL; repII
Description: as §1, §3

[3] = molecular target: T17, biotin-peptide TSPIPNMADD; test: ELISA biotin-peptide; scFv 10 ug/mL; repII
Description: as §1, §3

[4] = molecular target: T18, biotin-peptide IPNMADDYGS; test: ELISA biotin-peptide; scFv 10 ug/mL; repII
Description: as §1, §3

[5] = molecular target: T19, biotin-peptide MADDYGSEST; test: ELISA biotin-peptide; scFv 10 ug/mL; repII
Description: as §1, §3

[6] = molecular target: T20, biotin-peptide DYGSESTSSM; test: ELISA biotin-peptide; scFv 10 ug/mL; repII
Description: as §1, §3

[7] = molecular target: T21, biotin-peptide SESTSSMEDY; test: ELISA biotin-peptide; scFv 10 ug/mL; repII
Description: as §1, §3

[8] = molecular target: T22, biotin-peptide TSSMEDYVNF; test: ELISA biotin-peptide; scFv 10 ug/mL; repII
Description: as §1, §3

[9] = molecular target: T23, biotin-peptide SSMEDYVNFN; test: ELISA biotin-peptide; scFv 10 ug/mL; repII
Description: as §1, §3

[10] = molecular target: T24, biotin-peptide SMEDYVNFNF; test: ELISA biotin-peptide; scFv 10 ug/mL; repII
Description: as §1, §3

[11] = molecular target: T25, biotin-peptide MEDYVNFNFT; test: ELISA biotin-peptide; scFv 10 ug/mL; repII
Description: as §1, §3

[12] = molecular target: T26, biotin-peptide YVNFNFTDFY; test: ELISA biotin-peptide; scFv 10 ug/mL; repII
Description: as §1, §3

[13] = molecular target: T27, biotin-peptide FNFTDFYCEK; test: ELISA biotin-peptide; scFv 10 ug/mL; repII
Description: as §1, §3

[14] = molecular target: T28, biotin-peptide TDFYCEKNNV; test: ELISA biotin-peptide; scFv 10 ug/mL; repII
Description: as §1, §3

[15] = molecular target: T29, biotin-peptide YCEKNNVRQF; test: ELISA biotin-peptide; scFv 10 ug/mL; repII
Description: as §1, §3

biotin-peptide KNNVRQFAS = molecular target: T30, biotin-peptide KNNVRQFAS; test: ELISA biotin-peptide; scFv 10 ug/mL; repII
Description: as §1, §3

Row | Binder | OD450 (naked peptide MTPTDFTSPI) [OD] | OD450 (naked peptide TDFTSPIPNM) [OD] | OD450 (naked peptide TSPIPNMADD) [OD] | OD450 (naked peptide IPNMADDYGS) [OD] | OD450 (naked peptide MADDYGSEST) [OD] | OD450 (naked peptide DYGSESTSSM) [OD] | OD450 (naked peptide TSSMEDYVNF) [OD] | OD450 (naked peptide SSMEDYVNFN) [OD] | OD450 (naked peptide MEDYVNFNFT) [OD] | OD450 (naked peptide YVNFNFTDFY) [OD] | OD450 (naked peptide FNFTDFYCEK) [OD] | OD450 (naked peptide TDFYCEKNNV) [OD] | OD450 (naked peptide YCEKNNVRQF) [OD] | OD450 (naked peptide KNNVRQFAS) [OD] | OD450 [1] [OD] | OD450 [2] [OD] | OD450 [3] [OD] | OD450 [4] [OD] | OD450 [5] [OD] | OD450 [6] [OD] | other results
1 | Comparative antibody 2 (Comp-2) scFv, 243LO326 (VH SEQ ID NO: 51 and VL SEQ ID NO: 52 of WO 2022/195028 A2), His-tagged (scFv) scFv: QVQLVQSGAEVKKPGASVKVSCKASGYTFTSYWMHWVRQAPGQGLEWIGVIYPGNSDTRYNQKFKGRVTITRDTSASTAYMELSSLRSEDTAVYYCTRDYYSNYVYYYAMDYWGQGTTVTVSSGGGGSGGGGSGGGGSGGGGSDIVMTQTPLSLPVTPGEPASISCRSSQSLVHPNRNTYLHWYLQKPGQSPQLLIYKVSNRFSGVPDRFSGSGSGTDFTLKISRVEAEDVGVYYCSQSTHVPWTFGQGTKLEIKHHHHHH | 0.03 | 0.05 | 0.02 | 0.02 | 0.02 | 0.02 | 0.03 | 0.09 | 0.04 | 0.01 | 0.03 | 0.03 | 0.07 | 0.04 | 0.1 | 0.12 | 0.05 | 0.09 | 0.09 | 0.09 | OD450 [7]: 0.05 OD; OD450 [8]: 0.06 OD; OD450 [9]: 0.1 OD; OD450 [10]: 0.05 OD; OD450 [11]: 0.08 OD; OD450 [12]: 2.06 OD; OD450 [13]: 1.35 OD; OD450 [14]: 0.05 OD; OD450 [15]: 0.1 OD; OD450 (biotin-peptide KNNVRQFAS): 0.07 OD
2 | Comparative antibody 3 (Comp-3) scFv, SR_92R (Somovilla-Crespo et al. 2018), His-tagged (scFv) scFv: EVKLEESGGGLVQPGGSMKLSCVASGFTFNKFWMNWVRQSPEKGLEWVAEIRLKSNNYATHYAESVKGRFTISRDDSKSSVYLQMNNLRAEDTGIYYCASDGWFAYWGQGTLVTVSAGGGGSGGGGSGGGGSGGGGSDVVMTQTPLSLPVSLGDQASISCRSSQSLVHSNGNTYLNWCLQRPGQSPKSLIYKVSNRFSGVPDRFSGSGSGTDFTLKISRVEAEDLGVYFCSQSTHFPRTFGGGTKLEIKRHHHHHH | 0.04 | 0.08 | 0.04 | 0.04 | 0.04 | 0.03 | 0.03 | 0.08 | 0.06 | 0.01 | 0.07 | 0.04 | 0.03 | 0.04 | 0.13 | 0.11 | 1.69 | 1.47 | 0.13 | 0.1 | OD450 [7]: 0.12 OD; OD450 [8]: 0.12 OD; OD450 [9]: 0.12 OD; OD450 [10]: 0.12 OD; OD450 [11]: 0.11 OD; OD450 [12]: 0.13 OD; OD450 [13]: 0.07 OD; OD450 [14]: 0.09 OD; OD450 [15]: 0.09 OD; OD450 (biotin-peptide KNNVRQFAS): 0.08 OD
3 | CCR9_HUM2 scFv (humanized anti-CCR9 scFv, SEQ ID NO: 17 with C-terminal 6xHis tag) (scFv) scFv: QVQLVQSGAEVKKPGASVKVSCTASGYSFTDYIIYWVKQAHGQSLEWMGYIDPNNYNTRYSQKFQGKVTITVDKSSTSAYMELNSLTSDDTAVYYCARDVYWGQGTTVTVSSGGGGSGGGGSGGGGSGGGGSDVVMTQTPLSLSVTPGQPASISCRSSQSLVHSNGKTYLQWYLQKPGQSPKLLIYKVSNRFSGVPDRFSGSGSGTDFTLKISRVEAEDVGVYFCAQSTHVWTFGGGTKVEIKRAHHHHHH | 0.04 | 0.04 | 0.02 | 0.02 | 0.03 | 0.02 | 0.03 | 0.99 | 0.86 | 0.02 | 0.03 | 0.03 | 0.03 | 0.03 | 0.09 | 0.09 | 0.06 | 0.1 | 0.16 | 0.07 | OD450 [7]: 0.09 OD; OD450 [8]: 1.92 OD; OD450 [9]: 2.3 OD; OD450 [10]: 2.38 OD; OD450 [11]: 2.32 OD; OD450 [12]: 0.21 OD; OD450 [13]: 0.06 OD; OD450 [14]: 0.06 OD; OD450 [15]: 0.06 OD; OD450 (biotin-peptide KNNVRQFAS): 0.09 OD
